Test [1] addresses T1, N-palmitoyl-S-(2,3-bis(palmitoyloxy)-(2R,S)-propyl)-(R)-cysteinyl-seryl-(lysyl)-3-lysine.
T1 construct: Synthetic bacterial lipopeptide analogue and TLR2 agonist, immobilised on the SPR chip; also called P3CSK4; tripalmitoyl-cysteinyl-seryl-(lysyl)3-lysine
T1 peptide: Palmitoyl-C(2,3‑bis(palmitoyloxy)‑(2R,S)‑propyl)SKKKK
Put plainly: SPR, antibody alone over immobilised P3CSK4. Background: Surface plasmon resonance follows binding to a sensor surface in real time, without labels.

Test [2] concerns the target recombinant TLR2ECD-Fc fusion protein (human IgGFc fused mouse TLR2ECD protein) (murine; human) (UniProt Q9QUN7). Put plainly: SPR competition: T2EC pre-incubated with T2.5, binding to immobilised P3CSK4.

Ends that are not written are not given here. * marks the point of attachment. Palmitoyl = CCCCCCCCCCCCCCCC(=O)*

Sequence of recombinant TLR2ECD-Fc fusion protein (human IgGFc fused mouse TLR2ECD protein) (murine; human) (Q9QUN7 25-587 limits assumed, form in doubt): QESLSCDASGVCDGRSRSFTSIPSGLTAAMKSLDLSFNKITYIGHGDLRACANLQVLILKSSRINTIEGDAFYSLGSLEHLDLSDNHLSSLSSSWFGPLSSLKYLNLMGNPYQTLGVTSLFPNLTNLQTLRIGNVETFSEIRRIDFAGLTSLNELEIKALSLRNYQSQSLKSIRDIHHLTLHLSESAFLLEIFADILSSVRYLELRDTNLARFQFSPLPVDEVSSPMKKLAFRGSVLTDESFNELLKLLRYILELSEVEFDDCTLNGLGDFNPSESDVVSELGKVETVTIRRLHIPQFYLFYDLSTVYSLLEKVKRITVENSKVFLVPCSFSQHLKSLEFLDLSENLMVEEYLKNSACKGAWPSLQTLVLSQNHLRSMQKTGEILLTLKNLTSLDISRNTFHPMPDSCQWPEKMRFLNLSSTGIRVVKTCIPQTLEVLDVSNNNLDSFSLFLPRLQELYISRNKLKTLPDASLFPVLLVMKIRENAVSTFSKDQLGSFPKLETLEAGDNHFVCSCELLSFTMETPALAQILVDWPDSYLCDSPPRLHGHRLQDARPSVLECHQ

B1: murine monoclonal antibody T2.5 (antibody, V domains shown)
VH: QVQLQQSGPELVNPGASVKLSCKASGFTFTTYGINWVKQGPGQGLEWIGWIYPRDGSTNFNENFKDKAALTVDTSSSTAYMELHSLTSEDSAVYFCARLTGGTFLDYWGQGTTLTVSS
VL: DIVLTQSPASLAVSLGQRATISCRASESVEYYGTSLMQWYQQKPGQPPKLLIFGASNVESGVPVRFSGSGSGTDFSLNIHPVEEDDIVMYFCQQSRKLPWTFGGGTKLEIKR
notes: also called mAb T2.5; native T2.5
Turning to B1, in test [1], the binding result is given as “no binding”. In test [2], the molar excess of T2.5 over T2EC that abrogated the T2EC-P3CSK4 interaction (fold molar excess) was determined as 10 and the molar ratio (T2.5:T2ECD) required to reduce binding to 50% (molar ratio (T2.5:T2ECD)) stood at 3.3.

The values above are taken from patent US20140343256A1 (TECHNISCHE UNIVERSITAT MUNCHEN, published 2014).
